Assay results as given in PMC8110955, “A synthetic RNA editing factor edits its target site in chloroplasts and bacteria”.

Molecular target: T1, MORF9 (UniProt Q9LPZ1 75-196, C85S;C187S)
T1 sequence: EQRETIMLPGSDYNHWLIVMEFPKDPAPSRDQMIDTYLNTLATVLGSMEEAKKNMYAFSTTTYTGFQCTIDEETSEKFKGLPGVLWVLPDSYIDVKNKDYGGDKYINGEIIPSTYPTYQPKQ
Assay: EMSA; MORF9 alone, up to highest concentration; REMSA: 1 nM RNA, 2x buffer is 85 mM Tris, 165 mM HEPES, 200 mM NaCl, 12.5 mM DTT, 0.25 mM EDTA, 1.25 mg/mL heparin, 0.1 mg/mL BSA; 30 min at ambient temperature; 5% polyacrylamide gel; pH not stated
Settings: protein: recombinant; tags: N-terminal His-TEV tag cleaved off; label: 5'-Cy5; single strand

Q: Does CAGCAACAGAAGCCCAAGCUCAUGGA (ssRNA) [clpP1_REMSA (clpP1-69942)] bind?
A: Result: no binding

Q: Does AUGUAUUACACGUGCAAAAUCUGAGA (ssRNA) [rpoA_REMSA (rpoA-78691)] bind?
A: Result: no binding
